From patent US20150344570A1 (published 2015) come the findings set out here.

To fix the notation:
B1: GpH7-A5/GpH7-B3 variant Y300_01G/GpL16-k0 (antibody, human IgG1, kappa)
heavy 1: not shown
heavy 2: not shown
light: DIVMTQSPLSLPVTPGEPASISCQASESLVHSNRNTYLHWYLQKPGQSPQLLIYKVSNRFSGVPDRFSGSGSGTDFTLKISRVEAEDVGVYYCSQNTHVPPTFGQGTKVEIERTVAAPSVFIFPPSDEQLKSGTASVVCLLNNFYPREAKVQWKVDNALQSGNSQESVTEQDSKDSTYSLSSTLTLSKADYEKHKVYACEVTHQGLSSPVTKSFNRGEC
notes: He Ab: mutation in one H chain only; also called He Ab
B2: GpH7-A5/GpH7-B3 variant N325_19Q/GpL16-k0 (antibody, human IgG1, kappa)
heavy 1: not shown
heavy 2: not shown
light: B1 light
notes: as for B1
B3: GpH7-A5/GpH7-B3 variant I336_16H/GpL16-k0 (antibody, human IgG1, kappa)
heavy 1: not shown
heavy 2: not shown
light: B1 light
notes: as for B1
B4: GpH7-A5/GpH7-B3 variant S298_14T/GpL16-k0 (antibody, human IgG1, kappa)
heavy 1: not shown
heavy 2: not shown
light: B1 light
notes: as for B1
B5: GpH7-A5/GpH7-B3 variant A327_06M/GpL16-k0 (antibody, human IgG1, kappa)
heavy 1: not shown
heavy 2: not shown
light: B1 light
notes: as for B1
B6: GpH7-A5/GpH7-B3 variant I336_18N/GpL16-k0 (antibody, human IgG1, kappa)
heavy 1: not shown
heavy 2: not shown
light: B1 light
notes: as for B1
B7: GpH7-A5/GpH7-B3 variant S298_11K/GpL16-k0 (antibody, human IgG1, kappa)
heavy 1: not shown
heavy 2: not shown
light: B1 light
notes: as for B1
B8: GpH7-A5/GpH7-B3 variant A327_15Y/GpL16-k0 (antibody, human IgG1, kappa)
heavy 1: not shown
heavy 2: not shown
light: B1 light
notes: as for B1
B9: GpH7-A5/GpH7-B3 variant A327_05P/GpL16-k0 (antibody, human IgG1, kappa)
heavy 1: not shown
heavy 2: not shown
light: B1 light
notes: as for B1
B10: GpH7-A5/GpH7-B3 variant I336_14T/GpL16-k0 (antibody, human IgG1, kappa)
heavy 1: not shown
heavy 2: not shown
light: B1 light
notes: as for B1
B11: GpH7-A5/GpH7-B3 variant I336_04F/GpL16-k0 (antibody, human IgG1, kappa)
heavy 1: not shown
heavy 2: not shown
light: B1 light
notes: as for B1
B12: GpH7-A5/GpH7-B3 variant I336_12R/GpL16-k0 (antibody, human IgG1, kappa)
heavy 1: not shown
heavy 2: not shown
light: B1 light
notes: as for B1
B13: GpH7-A5/GpH7-B3 variant A327_08L/GpL16-k0 (antibody, human IgG1, kappa)
heavy 1: not shown
heavy 2: not shown
light: B1 light
notes: as for B1
B14: GpH7-A5/GpH7-B3 variant S298_15Y/GpL16-k0 (antibody, human IgG1, kappa)
heavy 1: not shown
heavy 2: not shown
light: B1 light
notes: as for B1
B15: GpH7-A5/GpH7-B3 variant S298_10E/GpL16-k0 (antibody, human IgG1, kappa)
heavy 1: not shown
heavy 2: not shown
light: B1 light
notes: as for B1
B16: GpH7-A5/GpH7-B3 variant A327_04F/GpL16-k0 (antibody, human IgG1, kappa)
heavy 1: not shown
heavy 2: not shown
light: B1 light
notes: as for B1
B17: GpH7-A5/GpH7-B3 variant I336_19Q/GpL16-k0 (antibody, human IgG1, kappa)
heavy 1: not shown
heavy 2: not shown
light: B1 light
notes: as for B1
B18: GpH7-A5/GpH7-B3 variant N325_02A/GpL16-k0 (antibody, human IgG1, kappa)
heavy 1: not shown
heavy 2: not shown
light: B1 light
notes: as for B1
B19: GpH7-A5/GpH7-B3 variant S298_12R/GpL16-k0 (antibody, human IgG1, kappa)
heavy 1: not shown
heavy 2: not shown
light: B1 light
notes: as for B1
B20: GpH7-A5/GpH7-B3 variant S298_09D/GpL16-k0 (antibody, human IgG1, kappa)
heavy 1: not shown
heavy 2: not shown
light: B1 light
notes: as for B1

In one assay the target is T1, FcγRIa (human, UniProt P12314 16-292).
T1 construct: extracellular domain; Soluble extracellular domain with C-terminal His tag, used as analyte; also called FcgRI; CD64; not shown: His tag at the C terminus
T1 sequence (P12314 16-292): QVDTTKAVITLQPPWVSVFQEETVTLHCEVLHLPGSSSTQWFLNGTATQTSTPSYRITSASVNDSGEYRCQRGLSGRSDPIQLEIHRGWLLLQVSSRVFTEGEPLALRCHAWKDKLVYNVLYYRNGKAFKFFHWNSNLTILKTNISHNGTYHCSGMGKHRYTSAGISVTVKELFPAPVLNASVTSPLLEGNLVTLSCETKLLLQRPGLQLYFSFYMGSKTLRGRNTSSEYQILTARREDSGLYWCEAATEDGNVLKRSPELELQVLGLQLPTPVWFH
The assay can be described thus: SPR (Biacore), captured antibody, FcγR as analyte, relative binding. As for the experimental part:
(§1) The heterodimerized antibodies He Abs in which one of the H chains was introduced with an alteration were assayed for their binding activities to each activating FcγR and inhibitory FcγR according to the method described in Example 4. […] The activating FcγRs in FIGS. 26, 27, 28, and 29 are FcγRIa, FcγRIIa (R), FcγRIIa (H), and FcγRIIIa, respectively.
(§2) Analysis of interaction between objective antibody and the FcγR was carried out using Biacore T100 (GE Healthcare). HBS-EP+ (GE Healthcare) was used as the running buffer, and the measurement temperature was set to 25° C. Chips produced by immobilizing the antigen peptide by the amine coupling method to a Series S Sencor Chip CM5 (GE Healthcare), or alternatively, chips produced by allowing preliminarily biotinylated antigen peptides to interact with and immobilize onto a Series S Sensor Chip SA (certified) (GE Healthcare) were used. Antibodies of interest were captured onto an antigen peptide-immobilized chip, and allowed to interact to each FcγR diluted with running buffer. To regenerate and repeatedly use the chip, the antibodies captured on the chip were washed off by reacting 10 mM glycine-HCl, pH 1.5.
On to B1, for which the He/Con_1a was 116 % of GpH7-A5/GpH7-B3/GpL16-k0.

For B2, the He/Con_1a was 99.1 % of GpH7-A5/GpH7-B3/GpL16-k0.

B3: the He/Con_1a is 101 % of GpH7-A5/GpH7-B3/GpL16-k0.

With B4, the He/Con_1a is 107 % of GpH7-A5/GpH7-B3/GpL16-k0.

In the case of B5, the He/Con_1a is 103 % of GpH7-A5/GpH7-B3/GpL16-k0.

As to B6, the He/Con_1a was 108 % of GpH7-A5/GpH7-B3/GpL16-k0.

B7: the He/Con_1a is 109 % of GpH7-A5/GpH7-B3/GpL16-k0.

For B8, the He/Con_1a is 96.3 % of GpH7-A5/GpH7-B3/GpL16-k0.

On to B9, for which the He/Con_1a was 99.3 % of GpH7-A5/GpH7-B3/GpL16-k0.

In the case of B10, the He/Con_1a is 104 % of GpH7-A5/GpH7-B3/GpL16-k0.

B11: the He/Con_1a was 106 % of GpH7-A5/GpH7-B3/GpL16-k0.

As for B12, the He/Con_1a was 102 % of GpH7-A5/GpH7-B3/GpL16-k0.

Take B13: the He/Con_1a is 98.6 % of GpH7-A5/GpH7-B3/GpL16-k0.

Regarding B14, the He/Con_1a is 107 % of GpH7-A5/GpH7-B3/GpL16-k0.

On to B15, for which the He/Con_1a was 108 % of GpH7-A5/GpH7-B3/GpL16-k0.

Regarding B16, the He/Con_1a was 99.1 % of GpH7-A5/GpH7-B3/GpL16-k0.

Regarding B17, the He/Con_1a was 104 % of GpH7-A5/GpH7-B3/GpL16-k0.

B18: the He/Con_1a is 96.8 % of GpH7-A5/GpH7-B3/GpL16-k0.

On to B19, for which the He/Con_1a is 109 % of GpH7-A5/GpH7-B3/GpL16-k0.

In the case of B20, the He/Con_1a is 106 % of GpH7-A5/GpH7-B3/GpL16-k0.

The target of another assay is T2, FcγRIIb (human, UniProt P31994 43-217).
T2 construct: extracellular domain; Soluble extracellular domain with C-terminal His tag, used as analyte; also called FcgRIIb; CD32B; not shown: His tag at the C terminus
T2 sequence (looked up): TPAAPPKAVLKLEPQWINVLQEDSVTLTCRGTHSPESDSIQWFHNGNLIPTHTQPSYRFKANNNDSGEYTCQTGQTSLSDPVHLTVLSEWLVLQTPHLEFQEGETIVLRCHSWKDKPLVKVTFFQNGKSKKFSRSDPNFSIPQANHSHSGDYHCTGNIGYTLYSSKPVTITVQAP
The assay is described as above. On the procedure: as §1, §2
For B1, the He/Con_2b was 48.4 % of GpH7-A5/GpH7-B3/GpL16-k0.

As for B2, the He/Con_2b is 69.1 % of GpH7-A5/GpH7-B3/GpL16-k0.

In the case of B3, the He/Con_2b is 85.8 % of GpH7-A5/GpH7-B3/GpL16-k0.

Take B4: the He/Con_2b was 77.9 % of GpH7-A5/GpH7-B3/GpL16-k0.

For B5, the He/Con_2b was 59.5 % of GpH7-A5/GpH7-B3/GpL16-k0.

As for B6, the He/Con_2b was 97.6 % of GpH7-A5/GpH7-B3/GpL16-k0.

On to B7, for which the He/Con_2b is 61.3 % of GpH7-A5/GpH7-B3/GpL16-k0.

Take B8: the He/Con_2b is 60.8 % of GpH7-A5/GpH7-B3/GpL16-k0.

With B9, the He/Con_2b is 69.3 % of GpH7-A5/GpH7-B3/GpL16-k0.

B10: the He/Con_2b is 89.5 % of GpH7-A5/GpH7-B3/GpL16-k0.

Take B11: the He/Con_2b is 91.2 % of GpH7-A5/GpH7-B3/GpL16-k0.

Consider B12, for which the He/Con_2b was 92.1 % of GpH7-A5/GpH7-B3/GpL16-k0.

Regarding B13, the He/Con_2b was 63.1 % of GpH7-A5/GpH7-B3/GpL16-k0.

Regarding B14, the He/Con_2b was 61.4 % of GpH7-A5/GpH7-B3/GpL16-k0.

Turning to B15, the He/Con_2b is 47.6 % of GpH7-A5/GpH7-B3/GpL16-k0.

For the molecule B16, the He/Con_2b is 63.7 % of GpH7-A5/GpH7-B3/GpL16-k0.

As for B17, the He/Con_2b is 58.2 % of GpH7-A5/GpH7-B3/GpL16-k0.

As for B18, the He/Con_2b is 64.4 % of GpH7-A5/GpH7-B3/GpL16-k0.

B19: the He/Con_2b is 57.8 % of GpH7-A5/GpH7-B3/GpL16-k0.

As to B20, the He/Con_2b is 48.3 % of GpH7-A5/GpH7-B3/GpL16-k0.
